Experimental data published in patent publication US20200277377A1 (WUXI BIOLOGICS SHANGHAI, published 2020).

T1: hCTLA4_ECD.His point mutant T72 to alanine (human, UniProt P16410 36-161)
T1 construct: extracellular domain; alanine-scan mutein, HEK293F supernatant
T1 sequence (looked up): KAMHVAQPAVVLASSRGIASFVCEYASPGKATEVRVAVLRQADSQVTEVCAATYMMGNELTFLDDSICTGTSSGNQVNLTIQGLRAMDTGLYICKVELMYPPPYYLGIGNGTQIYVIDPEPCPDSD

T2: hCTLA4_ECD.His point mutant Y89 to alanine (human, UniProt P16410 36-161)
T2 construct: extracellular domain; alanine-scan mutein, HEK293F supernatant
T2 sequence (looked up): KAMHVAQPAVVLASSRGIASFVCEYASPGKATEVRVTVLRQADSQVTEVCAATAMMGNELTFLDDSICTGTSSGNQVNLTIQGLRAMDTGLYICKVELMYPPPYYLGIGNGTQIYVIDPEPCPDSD

T3: hCTLA4_ECD.His point mutant C103 to alanine (human, UniProt P16410 36-161)
T3 construct: extracellular domain; alanine-scan mutein, HEK293F supernatant
T3 sequence (looked up): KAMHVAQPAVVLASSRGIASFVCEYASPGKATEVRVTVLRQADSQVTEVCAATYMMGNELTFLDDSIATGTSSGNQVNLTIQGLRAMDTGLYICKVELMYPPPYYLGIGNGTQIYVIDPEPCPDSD

T4: hCTLA4_ECD.His point mutant I143 to alanine (human, UniProt P16410 36-161)
T4 construct: extracellular domain; alanine-scan mutein, HEK293F supernatant
T4 sequence (looked up): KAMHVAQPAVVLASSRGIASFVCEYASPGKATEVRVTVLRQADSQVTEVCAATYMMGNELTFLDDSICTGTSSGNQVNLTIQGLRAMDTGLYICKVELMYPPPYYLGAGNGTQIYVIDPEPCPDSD

T5: hCTLA4_ECD.His point mutant G144 to alanine (human, UniProt P16410 36-161)
T5 construct: extracellular domain; alanine-scan mutein, HEK293F supernatant
T5 sequence (looked up): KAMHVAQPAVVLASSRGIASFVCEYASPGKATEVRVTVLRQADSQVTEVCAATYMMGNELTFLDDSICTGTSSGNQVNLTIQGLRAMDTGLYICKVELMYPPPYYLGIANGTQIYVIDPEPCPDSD

T6: hCTLA4_ECD.His (N113 Q) (human, UniProt P16410 36-161)
T6 construct: extracellular domain; Glycosylation-site mutein, expressed in HEK293F cells; also called CTLA-4 with N113Q
T6 sequence (looked up): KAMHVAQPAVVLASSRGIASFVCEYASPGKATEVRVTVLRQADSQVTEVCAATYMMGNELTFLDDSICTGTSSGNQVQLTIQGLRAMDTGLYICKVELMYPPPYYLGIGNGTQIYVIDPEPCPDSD

T7: hCTLA4_ECD.His (N145Q) (human, UniProt P16410 36-161)
T7 construct: extracellular domain; Glycosylation-site mutein, expressed in HEK293F cells; also called CTLA-4 N145Q
T7 sequence (looked up): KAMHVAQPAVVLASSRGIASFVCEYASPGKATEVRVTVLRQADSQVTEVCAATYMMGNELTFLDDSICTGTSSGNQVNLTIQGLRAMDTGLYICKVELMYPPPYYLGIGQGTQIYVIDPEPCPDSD


Legend:
[1] = target: T1, hCTLA4_ECD.His point mutant T72 to …; test: capture ELISA, alanine scan, vs silent alanine substitutions
Procedure, shortened: (§1)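 Secreted His-tagged CTLA4 point muteins in quantified supernatant were captured and probed with HRP anti-His antibody and TMB. Absorbance normalised to the mean of control mutants; epitope residues were assigned with a binding fold-change cutoff of <0.55.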

[2] = target: T2, hCTLA4_ECD.His point mutant Y89 to …; test: as above
Procedure, shortened: as §1

[3] = target: T3, hCTLA4_ECD.His point mutant C103 to …; test: as above
Procedure, shortened: as §1

[4] = target: T4, hCTLA4_ECD.His point mutant I143 to …; test: as above
Procedure, shortened: as §1

[5] = target: T5, hCTLA4_ECD.His point mutant G144 to …; test: as above
Procedure, shortened: as §1

hCTLA4_ECD.His (N113 Q) = target: T6, hCTLA4_ECD.His (N113 Q); test: capture ELISA: W3162-1.154.8-z35 captured on anti-human Fc, hCTLA4-His mutein supernatant titrated (ng/ml), HRP-anti-His [C]
hCTLA4_ECD.His (N145Q) = target: T7, hCTLA4_ECD.His (N145Q); test: as above

| Fold change [1] | Fold change [2] | Fold change [3] | Fold change [4] | Fold change [5] | EC50 (read off the curve) (hCTLA4_ECD.His (N113 Q)) | EC50 (read off the curve) (hCTLA4_ECD.His (N145Q)) | Binder |
| --- | --- | --- | --- | --- | --- | --- | --- |
| 0.541 fold | 0.512 fold | 0.544 fold | 0.264 fold | 0.478 fold |  |  | W3162-1.146.19-z12-uAb.IgG1K (antibody, V domains shown, Humanized; label says IgG1K) VH: QVQLQESGPGLVKPSETLSLTCSVTYHTITSGYDWTWIRKPPGKGMEWIGYISYSGNTNYNPSLKSRVTISRDTSKNQFFLKLSSVTAADTAVYYCASMMVPHYYVMDAWGQGTLVTVSS VL: DIVMTQTPLSLSVTPGQPASISCRSSQSLLNSDGNTYLYWYLQKPGQSPQLLIYLVSKLGSGVPNRFSGSGSGTDFTLKISRVEAEDVGVYYCVQGTHDPWTFGGGTKVEIK |
|  |  |  |  |  | ~3 ng/mL | ~3 ng/mL | W3162_1.154.8-z35-uAb.IgG1K (antibody, V domains shown, Humanized; label says IgG1K) VH: QVQLVQSGAEVKKPGSSVKVSCKASGYTFTNYFMNWVRQAPGQGLEWMGRVDPEQGRADYAEKFKKRVTITADKSTSTAYMELSSLRSEDTAVYYCARRAMDNYGFAYWGQGTLVTVSS VL: EIVLTQSPDFQSVTPKEKVTITCSANSALSYMYWYQQKPDQSPKLWVHGTSNLASGVPSRFSGSGSGTDFTLTINSLEAEDAATYYCHHWSNTQWTFGGGTKVEIK |
